These results are taken from patent US20200199196A1 (WASHINGTON UNIVERSITY, published 2020).

Test [1] deals with T1, monomeric RANK (monomeric fragment of RANK) (UniProt O35305 31-214, limits assumed).
T1 construct: The monomeric RANK of the SPR and the RANK-6xHis of the yeast display are treated here as one molecule; also called RANK-6xHis; RANK-6His
T1 sequence (looked up): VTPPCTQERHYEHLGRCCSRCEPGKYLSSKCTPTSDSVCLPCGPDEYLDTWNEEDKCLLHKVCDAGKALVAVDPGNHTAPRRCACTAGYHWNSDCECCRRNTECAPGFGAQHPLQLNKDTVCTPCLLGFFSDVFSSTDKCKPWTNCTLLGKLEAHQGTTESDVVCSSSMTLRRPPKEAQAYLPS
Put plainly: yeast surface display, flow cytometry titration (FIG. 13).

Test [2] deals with T2, monomeric OPG (monomeric fragment of OPG) (UniProt O08712 22-197, limits assumed).
T2 construct: also called OPG-6xHis; unlabeled OPG
T2 sequence (looked up): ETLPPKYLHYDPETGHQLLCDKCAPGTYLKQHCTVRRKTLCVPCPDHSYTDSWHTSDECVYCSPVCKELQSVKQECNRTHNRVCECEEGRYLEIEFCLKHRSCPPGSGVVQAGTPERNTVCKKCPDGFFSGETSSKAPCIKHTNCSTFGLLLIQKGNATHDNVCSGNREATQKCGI
Put plainly: yeast surface display, flow cytometry titration (FIG. 13A).

B1: CDins/Q236H htRANKL (CDins combined with the Q236H mutation) (ligand)
chain: QPFAHLTINAASIPSGSHKVTLSSWYHDRGWAKISNMTLSNGKLRVNQDGFYYLYANISFRGGSHHETSGSVPTDYLHLMVYVVKTSEKIPSSHNLMKGGSTKNWSGNSEFHFYSINVGGFFKLRAGEEISIQVSNPSLLDPDQDATYFGAFKVQDID
notes: also called variant RANKL that combined CDins with the Q236H mutation
With B1, the binding result in test [1] and in test [2] was “no binding” throughout.
